Laboratory results as given in patent US20220002407A1.

Target: CD19 on CD19-positive human tumor cells (Raji, Raji-Luc, NALM6, Reh) (human) (UniProt P15391)
Experiment: cell-based or functional assay

Chain of CD19 on CD19-positive human tumor cells (Raji, Raji-Luc, NALM6, Reh) (human) (P15391 20-556): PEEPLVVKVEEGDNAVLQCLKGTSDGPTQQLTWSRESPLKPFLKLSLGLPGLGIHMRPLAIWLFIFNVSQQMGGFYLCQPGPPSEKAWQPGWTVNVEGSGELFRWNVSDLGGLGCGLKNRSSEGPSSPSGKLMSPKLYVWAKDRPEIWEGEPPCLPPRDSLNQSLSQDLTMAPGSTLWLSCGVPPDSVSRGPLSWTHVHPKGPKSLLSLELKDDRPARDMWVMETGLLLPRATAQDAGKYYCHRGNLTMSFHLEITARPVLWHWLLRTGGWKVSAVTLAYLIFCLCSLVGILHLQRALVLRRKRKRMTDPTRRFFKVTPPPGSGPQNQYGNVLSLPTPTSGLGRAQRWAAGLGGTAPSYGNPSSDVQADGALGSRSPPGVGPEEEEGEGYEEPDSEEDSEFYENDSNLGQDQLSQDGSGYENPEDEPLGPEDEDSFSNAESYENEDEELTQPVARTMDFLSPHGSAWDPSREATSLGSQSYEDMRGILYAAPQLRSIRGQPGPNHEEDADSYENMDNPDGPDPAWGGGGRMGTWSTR

“bispecific antibody blinatumomab (Blincyto, Amgen)” was tested, and the EC50 of activation of NFAT-RE luciferase reporter Jurkat T cells in the presence of Raji target cells was 2.71 nM, the EC50 to mediate CIK to kill different tumor cells (NALM6) was 0.0773 nM and the EC50 to mediate CIK to kill different tumor cells (Reh) was 0.0119 nM. The EC50 to mediate CIK to kill tumor cells (Raji-LUC) was 0.000595 nM, the EC50 to mediate CIK to kill tumor cells (Raji-LUC, second row without label) was 0.00565 nM and the EC50 to mediate PBMCs to kill tumor cells (Raji-LUC) was 0.00545 nM. The EC50 to mediate PBMCs to kill tumor cells (Raji-LUC, second row without label) was 0.0212 nM and the EC50 to mediate PBMCs to kill tumor cells (Raji-LUC, third row without label) was 0.0226 nM.
